The values that follow come from the nanobody polyreactivity screen of Harvey et al. (2022).

This data set can be described thus: yeast display, Sf9 membrane polyspecificity reagent, FACS + sequencing; frameworks hold sequencing errors. The procedure, abridged: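 Nanobodies from a synthetic yeast display library (Saccharomyces cerevisiae BJ5465), induced 36–48 hours with galactose, were stained 1 hour at 4 °C with 10% biotinylated, detergent-solubilized Sf9 membrane reagent, enriched on streptavidin microbeads, then FACS-sorted. Anti-HA (expression) and streptavidin (reagent binding) fluorescence set low and high (top ~1%) gates. Polyreactivity labels come from the gate of origin. Genes were colony-PCR amplified, MiSeq 2 × 250 sequenced and filtered by CDR length.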
Turning to “QVQLVESGGGLVQAGGSLRLSCAASGNTLSYYTMGWYRQAPGKERELVAAISRGGGSTYYADSVKGRFTISRDNSMNTVYLHMNSLKPEDTAVYYCAAEAYRYAWYDYWGQGTQVTVSS”, the “polyreactivity (PSR sort gate)” value is given as “high polyreactivity”.

Take “QVQLVESGGGLVQAGGSLRLSCAASGYILGRYAMGWSRQAPGNERELVAAITSGASTYYADSVKGRFTISRDNAKNTVYLQMNSLKPEDTAVYYCARVNGAKQGGEYDYWGQGTQVTVSS”: the “polyreactivity (PSR sort gate)” value was “high polyreactivity”.

Regarding “QVQLVESGGGLVQAGGSLRLSCAASGRTFRVYTMGWYRQAPGKERELVAVISGRGGSTSYADSVKGRFTISRDNAKNTVDLQMNSLKPEDTAVYYCAARGRAHWHYDYWGQGTQVTVSS”, the “polyreactivity (PSR sort gate)” value was “high polyreactivity”.

With “QVQLVESGGGLVQAGGSLRLSCSASGFTFWVNAMGWYRQAPGKERELVAAISRRGGRTYYADSVKGRYTISRDNAKNTVYLQMNSLKPEDTAVYYCNKEDVGCSESDYWGQGTQVTVSS”, the “polyreactivity (PSR sort gate)” value is recorded as “high polyreactivity”.

For “QVQLVESGGGLVQAGGSLRLSCAASGSTFDINAMGWYRQAPGKERELVAAISWGGGSTYYADSVKGRFTISRDNAKNTVYLQMNSLKPEDTAVYYCAKLKGTQPNRYDYWGQGTQVTVSS”, the “polyreactivity (PSR sort gate)” value was “low polyreactivity”.

As to “QVQLVESGGGLVQAGGSLRLSCAASGNIFYGYAMGWYRQAPGKERELVARINWSGSRTYYADSVKGRFTISRDNAKNSVYLQMNSLKPEDTAVYYCNTSTSRVPGNGDYWGQGTQVTVSS”, the “polyreactivity (PSR sort gate)” value is recorded as “high polyreactivity”.

For the sequence “QVQLVESGGGLVQAGGSLRLSCAASGFTFRINAMGWYRQAPGKERELVAAISWSGGSTYYADSVKGRFTISRDNAKNTVYLQMNSLKPEDTAVYYCNKVQSSRYRSQRTFQYGYWGQGTQVTVSS”, the “polyreactivity (PSR sort gate)” value is “high polyreactivity”.

Turning to “QVQLVESGGGLVQAGGSLRLSCAASGSTIYYNAMGWYRQAPGKERELVARISRSGGSTYADSVKGRFTISRDNAKNTVYLQMNSLKPEDTAVYYCNADAYGTPEFTSYAVRYDYWGQGTQVTVSS”, the “polyreactivity (PSR sort gate)” value is “low polyreactivity”.

For the sequence “QVQIVESGAGLVHAGGSLRISCAASGRIFWIYAMGWYRQAPGKESELVATITGSGGSTYYADSVKGRFTISRDNAKKTVYLQMNSLKPEVTAVYYCAARYPVSGGYDYWGQGTQVTLSS”, the “polyreactivity (PSR sort gate)” value is given as “low polyreactivity”.

As for “QVQLVESGGGLVHAGGSLRLSCAASGFTLHQYTMGWYRQAPGKERELVAAISDRGTRTYYADSVKGRFTISRDNAKNTVYLQMNSLKPEDPAVYYCAAYIAGVTGGSGYYYWGKGTQVTVSS”, the “polyreactivity (PSR sort gate)” value is given as “high polyreactivity”.

Turning to “QVQLVESGGGLVQAGGSLRLSCAASGSTFDYYAMGWYRQAPGKERELVAAISRTGGRTYYADSVKGRFTISRDNEKNSVYLQMHSLKPEESAVYYCNSVTRIGGGDYDYWGQGTQVTVSS”, the “polyreactivity (PSR sort gate)” value is given as “low polyreactivity”.

For “QVQLVESGGGLVQAGVSLRLSCAASGLIFGQNAMGWYRQAPAKERELVAAISQRGGTYYADSVKGRFTISRDNSKNTVYLQMNSLKPEDTAVYYCAARVGLQPGRYYLRYDYWGQGTQVTVSS”, the “polyreactivity (PSR sort gate)” value was “low polyreactivity”.

On to “QVQLVESGGGLVQAGGSLRLSCAASGLTFASYAMGWYRQSPGKERELVARISRSGGSTYYADSVKGRFTISRDNAKNTVYLQMNSLKPEDTAVYYCAARNSYGNWRYYYWGQGTQVTVSS”, for which the “polyreactivity (PSR sort gate)” value is recorded as “high polyreactivity”.

“QVQLVESGGGLVQAGGSLRLSCAASGLTFGFNAMGWYRQAPGKERELVAAISSRGGSTYYADSVKGRFTISRDNAKNTVYLQMNSLKPEDTAVYYCNARSVYDGFWYNYWGQGTQVTVSS”: the “polyreactivity (PSR sort gate)” value is “low polyreactivity”.

Take “QVQLVESGGGLVQAGGSLRLSCAASGRTFKRYAMGWYRQAPGKERELVAAITASGGNTYYADSVKGRFTISRDNAKNTVYLQMNSLKPEDTAVYYCNAVTSVQARPRNYYYWGQGTQVTVSS”: the “polyreactivity (PSR sort gate)” value is “high polyreactivity”.

For the sequence “QVQLVESGGGLVQAGGSLRLSCAASGSIFTFYAMGWYRQAPGKERELVATITISTGSTYYADSVKGRFTISRDNAKNTVYFQMNSLKPEDTAVYYCNAYISRRGKRGYNYWGQGTQVTVSS”, the “polyreactivity (PSR sort gate)” value is listed as “high polyreactivity”.

In the case of “QVQLVESGGGLVQAGGSLRLSCAASGIICGDNALGLYRQAPGKEWELVAAISSSGTSTNYADSVKGRFTISRDNAKNTVYLQMNSLKPEETAVYYCAKDVLPPYPQSRSGGDYWGQGTQVTVSS”, the “polyreactivity (PSR sort gate)” value was “low polyreactivity”.

As for “QEQLQESGGGLVQAGGSLYLSCAASGNIFEYYDMGWYRQGKERELVAGISYGTNTNYAVSVKGRFTISRDIAKNTVYLQMNSLKPEDTAVYYCARRIGHGSRPYWLETWLYPYDYWGQGTQVTVSS”, the “polyreactivity (PSR sort gate)” value was “low polyreactivity”.

As to “QVQLVESGGGLVQAGGSLRLSCAASGFIFPWYAMGWSRQAPGKERELVAIISWDTGSTYYADSVKGRFTISRDNAKNTVYLQMNSLKPEDTAVYYCVAYVGSTYSAPEYYWGQGTQVTVSS”, the “polyreactivity (PSR sort gate)” value was “low polyreactivity”.

In the case of “QVQLVESGGGLVQAGGSLRLSCAASGRTFGANDMGWYRQAPGKDSELVAAITYSGGRTNYADSVKGRFTISRDNAKNSVYLQMNSLKPEDTAVYYCAAGGWRDRSRYNYWGQGTQVTVSS”, the “polyreactivity (PSR sort gate)” value is reported as “high polyreactivity”.

Consider “QVQLVESGGGLVQAGGSLRLSCAASGRIYRRNTMGWYRQAPGKERELVAAITSSGGSTYADSVKGRFTISRDNAKNTVYLQMISLKPEDSAVYYCATYVAYHRGYRTYDHWGQGTHVTVSS”, for which the “polyreactivity (PSR sort gate)” value is reported as “low polyreactivity”.

As for “QVQLVESGGGLVQAGGSLRLSCAASGSTFPRYAMGWYRQAPGKERELVAAISRSGTSTYYADSVKGRFTISRDNAKNTVYLQMNSLKPEDTAVYYCAAEYHPRVLYPNWYDYWGQGTQVTVSS”, the “polyreactivity (PSR sort gate)” value was “low polyreactivity”.

As for “QVQLVESGGGLVQAGGSLRLSCPASGSTFQYYHMGWYRQEPGKERELVASITGSGDSTYYADSVKGRFTISRDNAKNTVYLQMNSLNPEDTAVYYCAAQITWSGYYDYWGQGTQVTVSS”, the “polyreactivity (PSR sort gate)” value is “low polyreactivity”.

Regarding “QVQLVESGGGLVQAGGSLRLSCAASGSIFEPNAMGWYSQAPGKERELVAAISWNDGDTYYADSVKGRFTISRDNAKNTVYLQMNSLKPEDTAVYYCAAETGYAFDYWGQGTQVTVSS”, the “polyreactivity (PSR sort gate)” value is recorded as “low polyreactivity”.

Turning to “QVQLVESGGGLVQAGGSLRLSSASSGRIFAIYVMGWYRQAHGKERELVAAITSGGNTNYADSVKGRFTISRDNAKNTVYLQINSLKPEDSAVYYCAAFYYRRSFTLSYSSFDYWGQGTQVTVSS”, the “polyreactivity (PSR sort gate)” value is recorded as “low polyreactivity”.

Turning to “KVQLVESGGGLVQAGGSLRLSCAASGSIFTFNAMGWYRQAPGKERELVAAIRWSSGRTYYADSVKGRFTISRDNAKNTVYLQMNSLKPEDTAVYFCAAKDFGSFYESGYDYWGQGTQVTVSS”, the “polyreactivity (PSR sort gate)” value is recorded as “high polyreactivity”.

For “QGQLVESGGALVQAGGTLRLSCAASGIIFSGNGMGWYRQAPGNVRELVAAITAGAGTNYADSVKGRFTISRDNAKNSVYLQMHSLKPEDPGVYYCAVDGRSVPAWWPRFDYWGQGTQVTVSS”, the “polyreactivity (PSR sort gate)” value is “low polyreactivity”.

For “QVQLVESGGGLVQAGGSLRLSCAASGRTVPYAMGWYRQAPGKERELVATITYRVSTYYADSVKGRFTISRDNAKNTVYLQMNSLKPEDTEVYYCNTVTYPYVPALYDYWGQGTQVTVSS”, the “polyreactivity (PSR sort gate)” value is given as “high polyreactivity”.

For the sequence “QVQLVESCGGLVQAGGSHRLSCDASGRIFTGYAMGWYRQAPGKERELVAAISWGGGRTYYADSVKGRFTISRDNAKNTVYLQMNSLKPEDTADYYCNRAAGGRSTPYYYWGQGTQVTVSS”, the “polyreactivity (PSR sort gate)” value was “high polyreactivity”.

Take “QVQLVESGGGLVQAGGSLRLSCAASGSTFDGYAMGWYTQAPGKERELVAAISKNGGRTYYADSVKGRFTISRDNAKNTVYLQMNSLKPEDTAVYYCAIDIIKYDYDYWGQGTQVTVSS”: the “polyreactivity (PSR sort gate)” value was “low polyreactivity”.

For the sequence “QVQLVESGGGLVQAGGSLRLSCAASGITFYDNVMGWYIQAPGKERELVAAITSGGSTNYADSVKGRFTISRDNAKNTVYLQMNSLKPEDTAVYYCAAQPRVDYEFPYRYGYWGQGTQVTVSS”, the “polyreactivity (PSR sort gate)” value is recorded as “low polyreactivity”.

As for “QVQLVESGGGLVQAGGSLRLSCAASGNISYTYVMGWSRQAPGKHRELVAAITWSTGSTYYADSVKGRFTISRDNAKNTVYLQMNSLKPEDTAVYYCAVDGGEFSSYGYWGQGTQVTVSS”, the “polyreactivity (PSR sort gate)” value is “low polyreactivity”.

For “QVQLVESGGGLVQAGGSLRLSCAASGRTFTRYTMGWYRQAPGKERELVAAIRYSGGSTYYADSVKGRFTISRDNAKNTVYLQMNSLKPEDTAVYYCAARSYYYGFLYRYDYWGQGTQVTVSS”, the “polyreactivity (PSR sort gate)” value is recorded as “low polyreactivity”.

With “QVQLVESGGGLDQAGGSLRLTWAASGSIFKFYAMGWYRQAPGKERDMVAAISQSGGRTYYADSVKGRFTISRDNAKNSVYLQMNSLKPEDTAVYYCAKSVFPVYGRPSNLWFNYWGQGTQVTVSS”, the “polyreactivity (PSR sort gate)” value was “high polyreactivity”.

As to “QVQLVESGGGLVQAGGSLRLSCAASGNIFFSNAMGWYRQAPGKERELVASISQSGGSTYYADSVKGRFTISRDNAKNTVYLQMNSLKPEDTAVYYCAATQVRRGPAWGRDYWGQGTQVTVSS”, the “polyreactivity (PSR sort gate)” value is given as “low polyreactivity”.

For the sequence “QVQLVESGGGLVQAGGSLRLSCAASGSIFCVYAMGWYRQAPGKERELVAAISQSGGRTYYADSVKGRFTISRDNAKNTVYLQMNSLKPEDTAVYYCAAVVFNVYRRYWGQGTQVTVSS”, the “polyreactivity (PSR sort gate)” value was “high polyreactivity”.

As to “QVQLVESGGGLVQAGGSLGLSCAATGSTIPYNAMGWYRQAPGKERELVAAINSAGGTNYADSVKGRFTISRDNAKNTVYLQMNSRKPEDTAVYYCAADGSGYYDWYYYWGQGTQVTVSS”, the “polyreactivity (PSR sort gate)” value is on record as “low polyreactivity”.

Consider “QVQLVESGGGLVQAGGSLRLSCAASGSIFYWNAMGWYRQAPWKERELVASINWSGSTYYADSVKGSFTISRDNAKNTVYLQMNSLKPEDTAVYYCNTDPRVSDASADMEYWGQGTQVTVSS”, for which the “polyreactivity (PSR sort gate)” value is “high polyreactivity”.

Take “QVQLVESGGGLVQAGGSLRLSCAASGSTFVVNVMGWYRQAPGNEMELVAAITYRSGSTYYADSVKGRFTISRDNEKNTVYLQMNSLNPEDSAVYYCAAGYYSRYYEAFEYYYWGQGTQVTVSS”: the “polyreactivity (PSR sort gate)” value is recorded as “high polyreactivity”.

In the case of “QVQLVESGGGLVQAGGSLRLSCAASGRIFWANAMGWYRQAPGKERELVAAISYSGVSTYYADSVKGRFTISRDNAKNTVYLQMNSLIPEDTAVYYCAADRYRKYYYWGQGTQVTVSS”, the “polyreactivity (PSR sort gate)” value is on record as “high polyreactivity”.
